Laboratory results as given in PMC5932034 (2018).

Experiments:
[1] = target: FliT−FliD chaperone–substrate complex (non-fused) (Salmonella enterica serovar Typhimurium …, UniProt P0A1N2 1-122; P16328 1-467); assay: ITC
[2] = target: fused FliT−FliD^C construct (FliD^C fused to the N terminus of FliT) (Salmonella enterica serovar Typhimurium …, UniProt P16328); assay: ITC

Chain of FliT−FliD chaperone–substrate complex (non-fused) (P0A1N2 whole entry, chain 1 of 2, the tested form may be a part): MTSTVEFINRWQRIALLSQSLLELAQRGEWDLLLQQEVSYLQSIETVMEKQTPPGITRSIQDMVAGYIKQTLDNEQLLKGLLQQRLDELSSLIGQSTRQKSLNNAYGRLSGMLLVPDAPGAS
Chain of FliT−FliD chaperone–substrate complex (non-fused) (P16328 whole entry, chain 2 of 2, the tested form may be a part): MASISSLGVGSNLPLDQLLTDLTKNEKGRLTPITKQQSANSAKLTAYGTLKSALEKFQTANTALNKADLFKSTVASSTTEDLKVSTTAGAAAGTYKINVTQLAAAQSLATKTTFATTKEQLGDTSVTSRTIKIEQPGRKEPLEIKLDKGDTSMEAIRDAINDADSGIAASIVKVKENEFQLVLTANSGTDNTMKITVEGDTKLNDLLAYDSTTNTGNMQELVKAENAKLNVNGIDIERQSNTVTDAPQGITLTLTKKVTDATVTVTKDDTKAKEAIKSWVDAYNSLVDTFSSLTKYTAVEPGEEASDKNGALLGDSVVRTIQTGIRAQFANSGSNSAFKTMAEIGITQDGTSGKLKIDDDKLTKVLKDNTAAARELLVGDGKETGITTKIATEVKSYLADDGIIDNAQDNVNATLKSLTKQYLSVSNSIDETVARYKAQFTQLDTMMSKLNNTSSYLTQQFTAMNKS

B1: cytoplasmic domain of Salmonella enterica serovar Typhimurium FlhA (FlhA^C) (domain or fragment)
chain: SLGMEVGYRLIPMVDFQQDGELLGRIRSIRKKFAQDMGFLPPVVHIRDNMDLQPARYRILMKGVEIGSGDAYPGRWLAINPGTAAGTLPGEKTVDPAFGLDAIWIESALKEQAQIQGFTVVEASTVVATHLNHLIGQFSAELFGRQEAQQLLDRVSQEMPKLTEDLVPGVVTLTTLHKVLQNLLAEKVPIRDMRTILETLAEHAPLQSDPHELTAVVRVALGRAITQQWFPGNEEVQVIGLDTALERLLLQALQGGGGLEPGLADRLLAQTQEALSRQEMLGAPPVLLVNHALRPLLSRFLRRSLPQLVVLSNLELSDNRHIRMTATIGGK
Work on B1 yielded a Kd [1] of about 25 µM and a Kd [2] of about 29 µM.
